Results published in CN113817056A (CHONGQING PREC BIOTECH CO LTD; CHONGQING JINGZHUN BIO …, dated 2021).

Experiments:
hCD70-hFc [1] = target: T1, hCD70-hFc (human, UniProt P32970 39-193, limits assumed); assay: BLI, scFv on HIS1K sensor, hCD70-hFc analyte; row for 25 nM (same fit value in all rows)
T1 construct: the order here follows the printed name; not shown: human immunoglobulin Fc (hFc)
T1 sequence (looked up): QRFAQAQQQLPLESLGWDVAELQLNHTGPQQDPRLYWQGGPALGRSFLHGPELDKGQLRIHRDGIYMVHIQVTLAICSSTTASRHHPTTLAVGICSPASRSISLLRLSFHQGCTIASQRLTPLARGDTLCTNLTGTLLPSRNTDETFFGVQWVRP

hCD70-hFc [2] = target: T1, hCD70-hFc; assay: BLI, scFv on HIS1K sensor, hCD70-hFc analyte; row for 50 nM (same fit value in all rows)
hCD70-hFc [3] = target: T1, hCD70-hFc; assay: BLI, scFv on HIS1K sensor, hCD70-hFc analyte; row for 100 nM (same fit value in all rows)
hCD70-hFc [4] = target: T1, hCD70-hFc; assay: BLI, scFv on HIS1K sensor, hCD70-hFc analyte; row for 12.5 nM (same fit value in all rows)

B1: 靶向CD70 ScFv (scFv, V domains shown)
VH: EVQLVQSGPEVKKPGASVKVSCKASGYTFTDYYMNWVRQMHGKGLEWMGVINPYNGGTDYNQKFKGRVTITADKSTSTAYMELSSLRSEDTAVYYCARSVYDYPFDYWGQGTLVTVSS
VL: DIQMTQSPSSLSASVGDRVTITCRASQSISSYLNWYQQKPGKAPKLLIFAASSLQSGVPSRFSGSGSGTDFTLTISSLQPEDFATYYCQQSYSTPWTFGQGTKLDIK
- Kd (hCD70-hFc [1]): 21.4 nM
- koff (hCD70-hFc [1]): 0.0016 s⁻¹
- kon (hCD70-hFc [1]): 74000 M⁻¹ s⁻¹
- Kd (hCD70-hFc [2]): 21.4 nM
- koff (hCD70-hFc [2]): 0.0016 s⁻¹
- kon (hCD70-hFc [2]): 74000 M⁻¹ s⁻¹
- Kd (hCD70-hFc [3]): 21.4 nM
- koff (hCD70-hFc [3]): 0.0016 s⁻¹
- kon (hCD70-hFc [3]): 74000 M⁻¹ s⁻¹
- Kd (hCD70-hFc [4]): 21.4 nM
- koff (hCD70-hFc [4]): 0.0016 s⁻¹
- kon (hCD70-hFc [4]): 74000 M⁻¹ s⁻¹
